Source: US20050014242

Tests used:
[1] = test system: CFEK2-prostasin-6×HIS (purified zymogen, not digested with EK)
[2] = test system: PFEK1-neuropsin-6×HIS (purified zymogen, not digested with EK)
[3] = test system: PFEK1-protease MH2-6×HIS (purified zymogen, not digested with EK)
[4] = test system: PFEK1-protease O-6×HIS (purified zymogen, not digested with EK)
[5] = test system: PFEK2-prostasin-6×HIS (purified zymogen, not digested with EK)
[6] = test system: PFEK2-protease F-6×HIS (purified zymogen, not digested with EK)
Sequence of PFEK2-protease F-6×HIS (purified zymogen, not digested with EK) (chain, as listed by the source): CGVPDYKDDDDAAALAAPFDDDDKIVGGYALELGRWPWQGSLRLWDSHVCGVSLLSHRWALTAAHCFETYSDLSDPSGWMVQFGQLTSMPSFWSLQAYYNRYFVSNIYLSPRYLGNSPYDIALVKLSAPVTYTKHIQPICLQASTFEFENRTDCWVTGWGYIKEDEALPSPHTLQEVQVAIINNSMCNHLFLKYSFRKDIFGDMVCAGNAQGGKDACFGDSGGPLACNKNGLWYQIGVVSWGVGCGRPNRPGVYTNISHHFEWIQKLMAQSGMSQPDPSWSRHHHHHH

Sequence of PFEK1-protease MH2-6×HIS (purified zymogen, not digested with EK) (chain, as listed by the source): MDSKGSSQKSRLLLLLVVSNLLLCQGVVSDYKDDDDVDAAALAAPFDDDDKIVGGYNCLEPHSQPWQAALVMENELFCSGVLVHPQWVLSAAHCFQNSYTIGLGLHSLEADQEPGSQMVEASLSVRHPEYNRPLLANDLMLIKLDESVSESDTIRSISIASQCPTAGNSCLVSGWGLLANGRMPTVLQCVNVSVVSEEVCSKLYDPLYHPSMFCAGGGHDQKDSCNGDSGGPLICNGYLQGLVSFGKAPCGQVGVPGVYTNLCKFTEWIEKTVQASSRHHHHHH

Q: What does the source list for enterokinase?
A: cleavage of the zymogen (SDS-PAGE and anti-FLAG Western blot) [1]: quantitative cleavage of the expressed and purified zymogen to generate the processed and activated protease; cleavage of the zymogen (SDS-PAGE and anti-FLAG Western blot) [2]: quantitative cleavage of the expressed and purified zymogen to generate the processed and activated protease; cleavage of the zymogen (SDS-PAGE and anti-FLAG Western blot) [3]: quantitative cleavage of the expressed and purified zymogen to generate the processed and activated protease; cleavage of the zymogen (SDS-PAGE and anti-FLAG Western blot) [4]: quantitative cleavage of the expressed and purified zymogen to generate the processed and activated protease; cleavage of the zymogen (SDS-PAGE and anti-FLAG Western blot) [5]: quantitative cleavage of the expressed and purified zymogen to generate the processed and activated protease; cleavage of the zymogen (SDS-PAGE and anti-FLAG Western blot) [6]: quantitative cleavage of the expressed and purified zymogen to generate the processed and activated protease
